Reference: the supplement of paper PMC9170038

Test system: MS2 coat protein
Experiment: apparent KD of MS2 coat protein; designed switch direction (-1 OFF switch, 1 ON switch): 1; higher = weaker reporter binding
Outline: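 SNAP-549-labelled MS2 coat protein was titrated, doubling from 0.7 or 1.5 nM to 3 µM, over designed RNA switches transcribed on Illumina chips by stalled E. coli RNA polymerase. Runs were done without input, with 200 uM small-molecule ligand, or with an oligonucleotide input. Apparent KD is the per-design median over clusters of curve-fitted normalised fluorescence.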

[1] = input ligand: microRNA oligo, concentration not stated
[2] = Eterna round: R95, input ligand: FMN 200 uM
[3] = Eterna round: R95, input ligand: microRNA oligo, concentration not stated
[4] = Eterna round: R95, input ligand: none

Sequence | apparent KD of MS2 coat protein (input ligand: FMN 200 uM) | apparent KD of MS2 coat protein [1] | apparent KD of MS2 coat protein (input ligand: none) | apparent KD of MS2 coat protein [2] | apparent KD of MS2 coat protein [3] | apparent KD of MS2 coat protein [4]
GUAGCAUACCGAGGAUAUUCAUAUUAUACAUGAGGAUCACCCAUGUAAGGUCGAUUACGACCUUGGGAGAAGGCGGAAUGCUAC [Xeonanis - 20 Mod34] (Eterna round: R96, puzzle: Same State NG 2) | 20.3 nM | 71.9 nM | 108 nM | – | – | –
GUCAGCGAUUGAGGAUAUCACGUCGAAUAGACGUGAGAAGGCGAUCAUAACAUGAGGAUCACCCAUGUAUUACAUGAAGCUGAC [SSNG1/5-A1] (Eterna round: R96, puzzle: Same State NG 1) | 15.2 nM | 22.4 nM | 29.1 nM | – | – | –
GUCCGUACCACAGGAUAUCCUAGUCAUGAUCUAGGAGAAGGGUGGCCACAUGAGGAUCACCCAUGUGAAGUGCCAGAGGCACGA [MOD Xexeraed] (Eterna round: R96, puzzle: Same State NG 1) | 35.2 nM | 46 nM | 53.3 nM | – | – | –
GUGAAGAAUUAAGGAUAUUGAAUACAUAUGUUUAACAUGAGGAUCACCCAUGUGGGUUGCGGUAUCGAGAAGGUAAAUUACUGG [salish99_SSNG2_r04_032] (Eterna round: R96, puzzle: Same State NG 2) | – | 81.7 nM | – | – | – | –
GUGCAAAUCAUAGGAUAUGGGCGGGAAUGCCGUCCAGAAGGAUGAACAUGAGGAUCACCCAUGUCCAGCCGCAAAUACGCGGCC [Sodirien] (Eterna round: R96, puzzle: Same State NG 1) | 93.8 nM | 95.1 nM | 192 nM | – | – | –
GUGCAACCGUGUGAGGAUAUCGGUGGUAAAACAUGAGGAUCACCCAUGUCCGAAGCUCGGACCUCCGAGAAGGCGCACAGUUGCA [Same State 2 - Mod of Erisin v.1] (puzzle: Same State 2) | – | – | – | 6.82 nM | 5.46 nM | 7.08 nM
GUGCGGCUGCCACAGGAUAUACGUGGAUCGACAUGAGGAUCACCCAUGUAUAUCCUAAUAAUUGCGUAGAAGGGUGGUCAGCCGG [Anzaenenes] (puzzle: Same State 2) | – | – | – | 143 nM | 608 nM | 825 nM
GUGCUCGUGUAAGGAUAUGCAGCCGUUUCGGCUGCAGAAGGUACUAUAAUACAUGAGGAUCACCCAUGUCUCUAUUGUUUGGUG [salish99_SSNG1_r04_906] (Eterna round: R96, puzzle: Same State NG 1) | – | 76.3 nM | – | – | – | –
GUGCUCGUGUGAGGAUAUGCUUCCGUUUCGGCUGCAGAAGGUACUAUUAUACAUGAGGAUCACCCAUGUCUCUUUUCUCCGGUG [salish99_SSNG1_r04_913] (Eterna round: R96, puzzle: Same State NG 1) | 38.3 nM | 27.4 nM | 37.2 nM | – | – | –
GUGGCCCAGGCACAGGAUAUGUUUCUCGUAACAUGAGGAUCACCCAUGUGCCUAUGAGAUUGUUUGCAGAAGGGUGCACGCCACG [JL Atiinbe mod 03] (Eterna round: R96, puzzle: Same State 2) | 18.3 nM | 146 nM | 290 nM | – | – | –
GUGGCCCAGGCACAGGAUAUGUUUCUCGUAACAUGAGGAUCACCCAUGUGCCUAUGAGAUUGUUUGCAGAAGGGUGCACGCCACG [JL Atiinbe mod 03] (puzzle: Same State 2) | – | – | – | 21 nM | 348 nM | 541 nM
GUGGCCCAGGCACAGGAUAUGUUUCUCGUAACAUGAGGAUCACCCAUGUGCCUAUGAGAUUUAAUGCAGAAGGGUGCACGCCACU [Mat - Same State 2 - Mod of UCT - D79] (puzzle: Same State 2) | – | – | – | 24.1 nM | 95.8 nM | 184 nM
GUGGUCAGACAUGAGGAUCACCCAUGUGGAAUAAAUAACAGACAGGAUAUAUAAUAUAGGAUAUAGUAGAAGGGUCGAUUGGUG (Eterna round: R96, puzzle: Same State NG 3) | – | 69.7 nM | – | – | – | –
GUGGUCAGACAUGAGGAUCACCCAUGUGGAAUAAAUAACAGACAGGAUAUCGAAUAUAGGAUAUAUGAGAAGGGUCGAUUGGUG (Eterna round: R96, puzzle: Same State NG 3) | 63.4 nM | 63 nM | 90.7 nM | – | – | –
GUGGUCAGACAUGAGGAUCACCCAUGUGGAAUAAAUAACAGACAGGAUAUCUAAUAUAGGAUAUAGGAGAAGGGUCGAUUGGUG (Eterna round: R96, puzzle: Same State NG 3) | – | 73.5 nM | – | – | – | –
GUGGUCAGACAUGAGGAUCACCCAUGUGGAAUAAAUAACGGACAGGAUAUUCAAUAUAGGAUAUAGAAGAAGGGUUGAUUGGUG (Eterna round: R96, puzzle: Same State NG 3) | 143 nM | 84.5 nM | 90.9 nM | – | – | –
GUGGUCAGACAUGAGGAUCACCCAUGUGGAAUAAAUAACGGUGAGGAUAUCGAAUAUAGGAUAUACGAGAAGGCAUGAUUGGUG (Eterna round: R96, puzzle: Same State NG 3) | 165 nM | 93.3 nM | 124 nM | – | – | –

Sequence | apparent KD of MS2 coat protein (input ligand: FMN 200 uM) | apparent KD of MS2 coat protein [1] | apparent KD of MS2 coat protein (input ligand: none) | apparent KD of MS2 coat protein [2] | apparent KD of MS2 coat protein [3] | apparent KD of MS2 coat protein [4]
GUGGUCAGACAUGAGGAUCACCCAUGUGGAAUAAAUAACGUACAGGAUAUUCAAUAUAGGAUAUAGAAGAAGGGUAGAUUGGUG (Eterna round: R96, puzzle: Same State NG 3) | 196 nM | 136 nM | 195 nM | – | – | –
GUGGUCAGACAUGAGGAUCACCCAUGUGGAAUAAAUAAGGACUAGGAUAUCGAAUAUAGGAUAUACGAGAAGGAGUGGUUGGUG (Eterna round: R96, puzzle: Same State NG 3) | 81.1 nM | 53.5 nM | 67.9 nM | – | – | –
GUGGUCAGACAUGAGGAUCACCCAUGUGGAAUAAAUAAGGAGAAGGAUAUCGAAUAUAGGAUAUACGAGAAGGUCUGGUUGGUG (Eterna round: R96, puzzle: Same State NG 3) | – | 75.2 nM | – | – | – | –
GUGGUCAGACAUGAGGAUCACCCAUGUGGAAUAAAUAAGGAGAAGGAUAUCGAAUAUAGGAUAUACGAGAAGGUUUGGUUGGUG (Eterna round: R96, puzzle: Same State NG 3) | 120 nM | 67.3 nM | 90.6 nM | – | – | –
GUGGUCAGACAUGAGGAUCACCCAUGUGGAAUAAAUAAGGAGAAGGAUAUUCAAUAUAGGAUAUAGAAGAAGGUCUGGUUGGUG (Eterna round: R96, puzzle: Same State NG 3) | – | 63.7 nM | – | – | – | –
GUGGUCAGACAUGAGGAUCACCCAUGUGGAAUAAAUAAGGAGAAGGAUAUUUAAUAUAGGAUAUAAAAGAAGGUCUGGUUGGUG (Eterna round: R96, puzzle: Same State NG 3) | 99.4 nM | 55.6 nM | 92.5 nM | – | – | –
GUGGUCAGACAUGAGGAUCACCCAUGUGGAAUAAAUAAGGAUCAGGAUAUGGAAUAUAGGAUAUACCAGAAGGGAUGGUUGGUG (Eterna round: R96, puzzle: Same State NG 3) | 59.9 nM | 41.7 nM | 52.6 nM | – | – | –
GUGGUCAGACAUGAGGAUCACCCAUGUGGAAUAAAUAAGGCAUAGGAUAUAAAAUAUAGGAUAUAUUAGAAGGAUGGGUUGGUG (Eterna round: R96, puzzle: Same State NG 3) | 145 nM | 83.7 nM | 144 nM | – | – | –
GUGGUCAGACAUGAGGAUCACCCAUGUGGAAUAAAUAAGGGAGAGGAUAUAAAAUAUAGGAUAUAUUAGAAGGCUCGGUUGGUG (Eterna round: R96, puzzle: Same State NG 3) | 95.7 nM | 82.7 nM | 85.4 nM | – | – | –
GUGGUCAGACAUGAGGAUCACCCAUGUGGAAUAAAUAAGGUACAGGAUAUCUAAUAUAGGAUAUAAGAGAAGGGUAGGUUGGUG (Eterna round: R96, puzzle: Same State NG 3) | – | 55.9 nM | – | – | – | –
GUGGUCAGACAUGAGGAUCACCCAUGUGGAAUAAAUAAGGUCAAGGAUAUGGAAUAUAGGAUAUACCAGAAGGUGAGGUUGGUG (Eterna round: R96, puzzle: Same State NG 3) | 245 nM | 167 nM | 225 nM | – | – | –
GUGGUGAAUUAAGGAUAUCGAGUCUAGAUGUUAAACAUGAGGAUCACCCAUGUGGGUUGCGGUAUCGAGAAGGUAAUUUACGGG [salish99_SSNG2_r04_507] (Eterna round: R96, puzzle: Same State NG 2) | 25.4 nM | 26.1 nM | 47.2 nM | – | – | –
GUGGUGGGUUGAGGAUAUUGGUUGUUGUUGUCCCACAUGAGGAUCACCCAUGUGGGUUGUGGUUUUGAGAAGGUUGGUUGCCGG [salish99_SSNG2_r04_053] (Eterna round: R96, puzzle: Same State NG 2) | – | 15 nM | – | – | – | –
GUGGUGGGUUGAGGAUAUUGGUUGUUGUUGUUCCACAUGAGGAUCACCCAUGUGGGUUGUGGUUUUGAGAAGGUUGGUUGCUGG [salish99_SSNG2_r04_050] (Eterna round: R96, puzzle: Same State NG 2) | 17.2 nM | 14.2 nM | 20.3 nM | – | – | –
GUGUGUUGCGGGCAGGAUAUGUAUUUGAGUACAUGAGGAUCACCCAUGUGCGCCUGUUUCAGGCGACAGAAGGGCCUAUCGCGAC [JL-ss2-3.27 ViennaUCT mod] (puzzle: Same State 2) | – | – | – | – | 106 nM | –
GUGUUACAUGAGGAUCACCCAUGUUGUUUUAGAUAAGGAUAUAUGGUAACGAGAGAAAUAAUAGAAGGUAUUAGGC [JR_SS1_Sub062] (puzzle: Same State 1) | – | – | – | – | 29.9 nM | –
